System: MS2 coat protein
Test: apparent KD of MS2 coat protein; designed switch direction (-1 OFF switch, 1 ON switch): 1; higher = weaker reporter binding
In short: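 Designed RNA switches with common flanks were transcribed on Illumina chips by stalled E. coli RNA polymerase and titrated with SNAP-549-labelled MS2 coat protein, from 0.7 or 1.5 nM doubling to 3 µM, in Tris-HCl pH 7.5 buffer with KCl, MgCl2, BSA, DTT, tRNA and Tween-20. Steps lasted 0.8–1.5 h (lowest) to 10–20 min (highest). Titrations ran without input, with 200 uM small-molecule ligand, or with an oligonucleotide input. Normalised cluster fluorescence was curve-fitted, and apparent KD is the per-design median over clusters.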

[1] = Eterna round: R95, input ligand: FMN 200 uM
[2] = Eterna round: R95, input ligand: microRNA oligo, concentration not stated
[3] = Eterna round: R95, input ligand: none
[4] = input ligand: microRNA oligo, concentration not stated

Sequence: GGUAAACAUGAGGAUCACCCAUGUAAUAAUAUGGGAGGAUAUGGGAAUUAAUUAAUUAAACCAGAAGGCCUAAUGG [Mat - Same State 1 - D86] (puzzle: Same State 1)
- apparent KD of MS2 coat protein [1]: 133 nM
- apparent KD of MS2 coat protein [2]: 424 nM
- apparent KD of MS2 coat protein [3]: 628 nM

Sequence: CACGUCUCGGUAGGAUAUGAGGUGCCAUAGGGAACAGCCUAUGGACAUGAGGAUCACCCAUGUCCUCAGAAGGGCCGGACGUGA [Leonis] (Eterna round: R96, puzzle: Same State NG 2)
- apparent KD of MS2 coat protein (input ligand: FMN 200 uM): 18.1 nM
- apparent KD of MS2 coat protein [4]: 48.9 nM
- apparent KD of MS2 coat protein (input ligand: none): 68.2 nM

Sequence: GGUCCAGCCUGAGCUGGACAAAAGCAUGUACAUGAGGAUCACCCAUGUCAUGUACAAGCUUUUUGCUCGUCUUAAGU [Mat - hsa-mir-208a - 86] (Eterna round: R96, puzzle: Sensor for hsa-mir-208a)
- apparent KD of MS2 coat protein (input ligand: FMN 200 uM): 625 nM
- apparent KD of MS2 coat protein [4]: 14.1 nM
- apparent KD of MS2 coat protein (input ligand: none): 687 nM

Sequence: UACUUGGUGGUAGGAUAUGUAGGAUAUGGCGAGAGCUAAGCUUGGAAGUCACUUCAGCCAGAAGGACAGAAGGACCAGUAUCUC [pwkr ssNG2 2FMN + F9.11] (Eterna round: R96, puzzle: Same State NG 2)
- apparent KD of MS2 coat protein (input ligand: FMN 200 uM): 1450 nM
- apparent KD of MS2 coat protein [4]: 11.5 nM
- apparent KD of MS2 coat protein (input ligand: none): 81.6 nM

Sequence: UCUUGGUUUUUGCUCGUUUUUUGUGUUGAACAUGAGGAUCACCCAUGUAUUGUACGGUCCAGUUUAGUAGUGGUCCG [JMF 32] (puzzle: Sensor for hsa-mir-208a)
- apparent KD of MS2 coat protein [1]: 26 nM
- apparent KD of MS2 coat protein [2]: 13.5 nM
- apparent KD of MS2 coat protein [3]: 27 nM

Sequence: GGAAUAUUCACAGGAUAUGAGUUGUAAAGUGGAUCAGAAGGGUGGGUGUUUUGCACGGUGUGUUACAUGAGGAUCACCCAUGUU [SameState NG1 #23] (Eterna round: R96, puzzle: Same State NG 1)
- apparent KD of MS2 coat protein (input ligand: FMN 200 uM): 82.4 nM
- apparent KD of MS2 coat protein [4]: 241 nM
- apparent KD of MS2 coat protein (input ligand: none): 418 nM

Sequence: ACAUGAGAGAUAGGAUAUGUUGUACCUACAUGUGACAUGAGGAUCACCCAUGUGGUAAGUAUGAGACAGAAGGAUCAGAUAUGU [Equivalence 31 - Jieux - Same State NG 2] (Eterna round: R96, puzzle: Same State NG 2)
- apparent KD of MS2 coat protein (input ligand: FMN 200 uM): 20.8 nM
- apparent KD of MS2 coat protein [4]: 41.4 nM
- apparent KD of MS2 coat protein (input ligand: none): 74 nM

Sequence: AUAAGUUCGAUGCUCGUCUCUCCGUACAAACAUGAGGAUCACCCAUGUGGUCAGGAAGUAGCCCGACCAGUAUGGCC [Leedqu] (puzzle: Sensor for hsa-mir-208a)
- apparent KD of MS2 coat protein [1]: 29 nM
- apparent KD of MS2 coat protein [2]: 24.6 nM
- apparent KD of MS2 coat protein [3]: 34 nM

Sequence: AUCCUACAUGAGGAUCACCCAUGUGACGCCUCAAUAGGAUAUGCGUGUGCCUUGGCGCAUGCAGAAGGAUUGAAGC [JL Aveso mod 1] (puzzle: Same State 1)
- apparent KD of MS2 coat protein [2]: 295 nM

Sequence: GGUAGGUUACUACCAGACAUGAGGAUCACCCAUGUAAAUGGGAAGGAUAUGGUACCGUUUCGGUACCAGAAGGUCCUAAGUGAG [JL SSNG3 1.48] (Eterna round: R96, puzzle: Same State NG 3)
- apparent KD of MS2 coat protein (input ligand: FMN 200 uM): 667 nM
- apparent KD of MS2 coat protein [4]: 367 nM
- apparent KD of MS2 coat protein (input ligand: none): 2280 nM

Sequence: AUACAUGAGGAUCACCCAUGUAAUUAAUUAACUAGUAAGAUCUAGGAUAUCAGCUCGUUUAGAGCUGAGAAGGAGAUCACAUGU [SSNG3/21-A3] (Eterna round: R96, puzzle: Same State NG 3)
- apparent KD of MS2 coat protein [4]: 28.8 nM

Sequence: GCUUCACAUGAGGAUCACCCAUGUCUUCGGAGUCGAGGAUAUGGUAACUGUAAACAGUUGCCAGAAGGCGAGGAGC [SS1 - Son of Teenbexe v9] (Eterna round: R96, puzzle: Same State 1)
- apparent KD of MS2 coat protein (input ligand: FMN 200 uM): 48.8 nM
- apparent KD of MS2 coat protein [4]: 55.3 nM
- apparent KD of MS2 coat protein (input ligand: none): 66 nM

Sequence: CUGAGCGAUCAAGGAUAUCACGUCGAUUAGACGUGAGAAGGUGAUCAUAACAUGAGGAUCACCCAUGUAUUACAUGAAGCUCAG [SSNG1/2-A2] (Eterna round: R96, puzzle: Same State NG 1)
- apparent KD of MS2 coat protein (input ligand: FMN 200 uM): 386 nM
- apparent KD of MS2 coat protein [4]: 146 nM
- apparent KD of MS2 coat protein (input ligand: none): 1620 nM

Source: the supplement of paper PMC9170038
